Assays:
Format in all cases: cell-based, human
SW2 cells [1] = experiment: Colocalization microscopy, SW2; details: transferrin and LAMP-3 markers
Description: FIGS. 12A-12C depict colocalization of mo735 with markers that traffic to endolysosomal compartments. […] For LAMP-1 (right), confocal microscopic images were taken after labeling SH-SY5Y cells with ch735 or isotype antibody for 2 h. Following fixation and permeabilization, LAMP-1 antibody was applied and detected with anti-rabbit AF647 secondary. Anti-human IgG AF488 was used to detect ch735 or isotype antibody. […] Cross-sectional fluorescence profiles are shown at right with normalized pixel intensity for selected cells (marked with box in left confocal panels) versus distance across the cell for representative cross sections (marked with bar in right confocal panels).
SH—SY5Y or SW2 cells were plated at 20,000 cells/cm^2 on poly-L-lysine coated 35 mm glass bottom dishes and adhered overnight. To remove polySia, cells were treated as described above. To measure receptor-antibody internalization, cells were incubated with 150 nM AF488 labeled ch735, human IgG isotype control (ThermoFisher Scientific), mo735, or mouse IgG isotype control (anti-MBP mAb, NEB) and 100 nM AF647 transferrin or AF647 anti-LAMP-3 antibody (Santa Cruz) for 1 h. Cells were washed and then fixed as described above. […] The fluorescence intensity of the plot profile was analyzed using FIJI software. Fluorescence intensity was normalized to the maximum value for each channel.

SW2 cells [2] = experiment: Supplementary internalization assays; details: increases with concentration and time
Text: FIGS. 11A-11D depict internalization of mo735 by polySia-expressing cancer cells. […] Trypan blue was used to quench extracellular fluorescence. […] Cell membranes were labeled with wheat germ agglutinin (WGA,) and nuclei were stained with Hoescht. Scale bar, 10 μm. […] Cell membranes were labeled with wheat germ agglutinin (WGA) and nuclei were stained with Hoescht. Scale bar, 10 μm. […] Images include external mo735 detected with anti-mouse AF488, internal mo735 detected with anti-mouse AF647, nuclei stained with Hoescht, and a merged image. Scale bar, 10 μm.
For supplementary internalization assays, AF488-labeled isotype and mo735 antibodies were incubated with trypsinized SW2 cells at various concentrations for 2 h. Upon measurement in the flow cytometer, the extracellular fluorescence was quenched using trypan blue (final concentration 0.2%). For each sample, the mean fluorescence intensity (MFI) of 10,000 cells was measured in triplicate. […] Antibody internalization was also assessed according to the protocol described by Schmitz and coworkers (Diestel et al., “NCAM is Ubiquitylated, Endocytosed and Recycled in Neurons,” J. Cell. Sci. 120:4035-49 (2007), which is hereby incorporated by reference in its entirety), cells were incubated for 1 or 4 h at 37° C. with 150 nM mo735 in cell culture media. […]

ST8SiaII KO SW2 cells = experiment: Flow cytometry binding to ST8SiaII knockout cells
Text: FIGS. 8A-8C depict binding of polySia-specific mAb to ST8SiaII and ST8SiaIV knockout cell lines. […] Data are the geometric mean fluorescence intensity (MFI), with the values reported as the average of three replicates and the error represented as the standard deviation of the mean. […] In the ST8SiaII KO SW2 cells, 73% of the population (FL1-H-) binds mo735 below the level of the wild-type SW2 cells. […] In the ST8SiaIV KO SW2 cells, 68% of the population (FL1-H-) binds mo735 below the level of the wild-type SW2 cells.
CRISPR guide RNAs targeting ST8SiaII (crRNA1: […]; SEQ ID NO: 5) and ST8Sia4 (crRNA1: […]; SEQ ID NO: 6) were purchased from Genscript in the pLentiCRISPR v2 vector. Knockout cell lines were generated in SW2 cells using protocols described by Zhang and colleagues (Shalem et al., “Genome-Scale CRISPR-Cas9 Knockout Screening in Human Cells,” Science 343:84-7 (2014), which is hereby incorporated by reference in its entirety). Briefly, after lentiviral transduction, cells were maintained under selection with 1 μg/mL puromycin for at least 14 days prior to analysis by flow cytometry.
Cancer cells were trypsinized and collected with media, followed by three washes in PBS. […] Cells were washed three times, resuspended in 500 μL of 0.5% BSA in PBS, and analyzed on a BD FACSCalibur flow cytometer using Cell Quest Pro software (BD Biosciences).

B1: mo735: well-known mouse-derived IgG2a monoclonal antibody 735 targeting polysialic acid (antibody, V domains shown)
VH: QIQLQQSGPELVRPGASVKISCKASGYTFTDYYIHWVKQRPGEGLEWIGWIYPGSGNTKYNEKFKGKATLTVDTSSSTAYMQLSSLTSEDSAVYFCARGGKFAMDYWGQGTSVTVSS
VL: DVVMTQTPLSLPVSLGDQASISCRSSQSLVHSNGNTYLYWYLQKPGQSPKPLIYRVSNRFSGVPDRFSGSGSGTDFTLKISRVEAEDLGVYFCFQGTHVPYTFGGGTRLEIK
Q: With B1 as the molecule, how does the “compartments of accumulation after internalization (confocal)” value (SW2 cells [1]) read?
A: The value was “compartmentalized in early and recycling endosomes”.

Q: And the antibody internalization (SW2 cells [2])?
A: The antibody internalization was “comparable internalization”.

Q: What about the “population (FL1-H-) binding below the level of wild-type SW2 cells” value (ST8SiaII KO SW2 cells) of the same molecule?
A: Its value is 73%.
